# Experimental data reported in article PMC10786891, “Massively parallel profiling of RNA-targeting CRISPR-Cas13d”.
# Changes are numbered by the printed parent chain. In names and notes the source's numbering stands.
# T1: EsCas13d, nuclease-dead (Eubacterium siraeum, UniProt B0MS50, R295A;H300A;R849A;H854A)
# T1 sequence: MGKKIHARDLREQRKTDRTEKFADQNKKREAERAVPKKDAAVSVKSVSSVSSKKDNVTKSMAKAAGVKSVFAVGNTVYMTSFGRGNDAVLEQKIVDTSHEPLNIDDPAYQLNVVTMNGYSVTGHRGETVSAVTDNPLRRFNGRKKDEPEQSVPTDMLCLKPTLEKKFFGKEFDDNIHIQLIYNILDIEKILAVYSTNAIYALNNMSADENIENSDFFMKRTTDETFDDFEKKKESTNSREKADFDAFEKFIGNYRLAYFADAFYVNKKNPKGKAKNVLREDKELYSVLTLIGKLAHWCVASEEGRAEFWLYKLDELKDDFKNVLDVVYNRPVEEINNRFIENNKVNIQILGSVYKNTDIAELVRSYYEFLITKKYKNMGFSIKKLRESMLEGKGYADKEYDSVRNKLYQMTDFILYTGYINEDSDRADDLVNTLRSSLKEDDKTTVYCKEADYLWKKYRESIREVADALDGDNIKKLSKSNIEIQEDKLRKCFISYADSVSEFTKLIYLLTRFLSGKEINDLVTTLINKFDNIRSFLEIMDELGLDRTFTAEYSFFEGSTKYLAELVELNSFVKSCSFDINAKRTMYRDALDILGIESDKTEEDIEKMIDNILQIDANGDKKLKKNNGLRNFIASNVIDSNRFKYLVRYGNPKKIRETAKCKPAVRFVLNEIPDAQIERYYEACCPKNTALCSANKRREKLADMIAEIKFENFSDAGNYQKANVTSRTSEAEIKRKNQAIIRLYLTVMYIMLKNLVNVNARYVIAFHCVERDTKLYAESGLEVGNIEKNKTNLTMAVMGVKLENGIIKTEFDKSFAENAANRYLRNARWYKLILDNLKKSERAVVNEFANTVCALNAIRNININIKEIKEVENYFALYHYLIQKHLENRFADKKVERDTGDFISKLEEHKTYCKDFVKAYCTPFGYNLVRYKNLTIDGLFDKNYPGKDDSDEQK
# B1: target 1 insA 3' of 12,insG 3' of 6 (mixed)
# RNA 1: CACCCGUGCAAAAAUGCAGGGGUCUAAAACUGAGCGGAUAACCUCUCUAUGG
# RNA 2: GGGAAUGGAUCCACAUCUACGAAUUCGUACCAUAGAGAGGAUUAUCCGGCUCACCGAGAUCGGAAGAGCACACGU
# B2: target 1 C4A,A9G (mixed)
# RNA 1: B1 RNA 1
# RNA 2: GGGAAUGGAUCCACAUCUACGAAUUCGUACCAUAGAGAGGUUGUCCGAUCACCGAGAUCGGAAGAGCACACGU
# B3: target 1 insC 3' of 3,insC 3' of 3 (mixed)
# RNA 1: B1 RNA 1
# RNA 2: B1 RNA 2 with A41U, U43A, A44U, U45C, C47G, G48C, G49U, U51C
# B4: target 1 insA 3' of 13,insG 3' of 11 (mixed)
# RNA 1: B1 RNA 1
# RNA 2: B1 RNA 2 with G40A, A41G, U43G, A44U, U45A, C46U, G48C
# B5: target 1 insG 3' of 14,insG 3' of 7 (mixed)
# RNA 1: B1 RNA 1
# RNA 2: B1 RNA 2 with A41G, C47G, G48C
# B6: target 1 insG 3' of 18,insA 3' of 7 (mixed)
# RNA 1: B1 RNA 1
# RNA 2: B1 RNA 2 with A36G, G37A, A38G, G39A, A41G, C47A, G48C
# B7: target 1 complement block 5-11 (mixed)
# RNA 1: B1 RNA 1
# RNA 2: B2 RNA 2 with U41A, U42A, G43U, U44A, C45G, C46G, G47C, A48C
# B8: target 1 insA 3' of 2,insU 3' of 1 (mixed)
# RNA 1: B1 RNA 1
# RNA 2: GGGAAUGGAUCCACAUCUACGAAUUCGUACCAUAGAGAGGUUAUCCGCUCAAUCCGAGAUCGGAAGAGCACACGU
# B9: target 1 insA 3' of 2,insG 3' of 1 (mixed)
# RNA 1: B1 RNA 1
# RNA 2: B8 RNA 2 with U53G
# B10: target 1 C7A,U19G (mixed)
# RNA 1: B1 RNA 1
# RNA 2: B2 RNA 2 with U33G, G43A, C45A, A48C
# B11: target 1 A1U,G12A (mixed)
# RNA 1: B1 RNA 1
# RNA 2: B2 RNA 2 with G40A, G43A, A48C, A51U
# B12: target 1 A1G,G12A (mixed)
# RNA 1: B1 RNA 1
# RNA 2: B2 RNA 2 with G40A, G43A, A48C, A51G
# B13: target 1 C4A,C21U (mixed)
# RNA 1: B1 RNA 1
# RNA 2: B2 RNA 2 with C31U, G43A
# B14: target 1 insG 3' of 10,insA 3' of 6 (mixed)
# RNA 1: B1 RNA 1
# RNA 2: B1 RNA 2 with A41U, U43G, G48A
# B15: target 1 G12A (mixed)
# RNA 1: B1 RNA 1
# RNA 2: B2 RNA 2 with G40A, G43A, A48C
# B16: target 1 G12A,U19A (mixed)
# RNA 1: B1 RNA 1
# RNA 2: B2 RNA 2 with U33A, G40A, G43A, A48C
# B17: target 1 C7G,A18C (mixed)
# RNA 1: B1 RNA 1
# RNA 2: B2 RNA 2 with A34C, G43A, C45G, A48C
# B18: target 1 insG 3' of 8,insU 3' of 6 (mixed)
# RNA 1: B1 RNA 1
# RNA 2: B1 RNA 2 with A41U, U43A, A44U, U45G, G48U
# B19: target 1 A1U,U19C (mixed)
# RNA 1: B1 RNA 1
# RNA 2: B2 RNA 2 with U33C, G43A, A48C, A51U
# B20: target 1 C6G,G15U (mixed)
# RNA 1: B1 RNA 1
# RNA 2: B2 RNA 2 with G37U, G43A, C46G, A48C
# B21: target 1 G5U,U10G (mixed)
# RNA 1: B1 RNA 1
# RNA 2: B2 RNA 2 with U42G, G43A, G47U, A48C
# B22: target 1 C7G,C22G (mixed)
# RNA 1: B1 RNA 1
# RNA 2: B2 RNA 2 with C30G, G43A, C45G, A48C
# B23: target 1 insU 3' of 9,insU 3' of 9 (mixed)
# RNA 1: B1 RNA 1
# RNA 2: B1 RNA 2 with A41U, U43A, A44U, C46U, G48C
# B24: target 1 U3G,G12C (mixed)
# RNA 1: B1 RNA 1
# RNA 2: B2 RNA 2 with G40C, G43A, A48C, U49G
# B25: target 1 insG 3' of 16,insG 3' of 7 (mixed)
# RNA 1: B1 RNA 1
# RNA 2: B1 RNA 2 with A38G, G39A, A41G, C47G, G48C
# B26: target 1 A9G,G13A (mixed)
# RNA 1: B1 RNA 1
# RNA 2: B2 RNA 2 with G39A, A48C
# B27: target 1 G5C,U11C (mixed)
# RNA 1: B1 RNA 1
# RNA 2: B2 RNA 2 with U41C, G43A, G47C, A48C
# B28: target 1 C6U,U10G (mixed)
# RNA 1: B1 RNA 1
# RNA 2: B2 RNA 2 with U42G, G43A, C46U, A48C
# B29: target 1 insC 3' of 14,insU 3' of 12 (mixed)
# RNA 1: B1 RNA 1
# RNA 2: B1 RNA 2 with G39C, A41G, A44U, U45A, C46U, G48C
# B30: target 1 insA 3' of 2,insC 3' of 1 (mixed)
# RNA 1: B1 RNA 1
# RNA 2: B8 RNA 2 with U53C
# B31: target 1 insU 3' of 20,insA 3' of 10 (mixed)
# RNA 1: B1 RNA 1
# RNA 2: GGGAAUGGAUCCACAUCUACGAAUUCGUACCAUUAGAGAGGUUAAUCCGCUCACCGAGAUCGGAAGAGCACACGU
# B32: target 1 insU 3' of 15,insC 3' of 15 (mixed)
# RNA 1: B1 RNA 1
# RNA 2: B1 RNA 2 with A38U, G39C, G40A, A41G, U42G, A44U, U45A, C46U, G48C
# B33: target 1 U3A,G15C (mixed)
# RNA 1: B1 RNA 1
# RNA 2: B2 RNA 2 with G37C, G43A, A48C, U49A
# B34: target 1 insA 3' of 2,insA 3' of 2 (mixed)
# RNA 1: B1 RNA 1
# RNA 2: B8 RNA 2 with U53A
# Target: T1, EsCas13d, nuclease-dead
# Experiment: crRNA (strand 1, pre-loaded); Mg2+; 40 mM Tris-HCl pH 7.5, 150 mM NaCl, 6 mM MgCl2, 1 mM DTT, 0.1% Tween-20, 0.2 mg/ml BSA; 25 C; 10 min per concentration, then washed
# Details: tags: His6-TwinStrep-SUMO cleaved; N-terminal SNAP kept (SNAP-Surface 488); label: 3' end held by stalled T7 RNA polymerase
row,Binder,Kd [nM]
1,B1,28 ± 4
2,B2,3.18 ± 0.24
3,B3,43 ± 15
4,B4,13.2 ± 0.8
5,B5,6.8 ± 0.28
6,B6,43 ± 4
7,B7,19.2 ± 0.6
8,B8,10.5 ± 0.6
9,B9,8.6 ± 0.6
10,B10,55 ± 6
11,B11,5.2 ± 0.5
12,B12,5.9 ± 0.5
13,B13,4.4 ± 0.7
14,B14,41 ± 6
15,B15,5.5 ± 0.4
16,B16,51 ± 11
17,B17,81 ± 11

row,Binder,Kd [nM]
1,B18,16.5 ± 0.6
2,B19,22.2 ± 1.6
3,B20,36 ± 5
4,B21,57 ± 5
5,B22,38 ± 6
6,B23,18.8 ± 1
7,B24,8.1 ± 0.9
8,B25,16.5 ± 1.7
9,B26,8.4 ± 0.4
10,B27,16.8 ± 1.1
11,B28,15.7 ± 1.1
12,B29,43 ± 9
13,B30,8.5 ± 0.6
14,B31,19.4 ± 1.1
15,B32,28.4 ± 3.2
16,B33,32.9 ± 2.5
17,B34,9.6 ± 0.4
